Test results: paper PMC4424349, “The Plasmodium Class XIV Myosin, MyoB, Has a Distinct Subcellular Location in Invasive and Motile Stages of the Malaria Parasite and an Unusual Light Chain*” (The Journal of Biological Chemistry, 2015)

Biological target: T1, PfMLC-B C-terminal domain (MLC-B CTD), residues 497-652 (Plasmodium falciparum, UniProt Q8III1 497-652)
T1 construct: Myosin light chain B (MLC-B), Plasmodium falciparum 3D7, PlasmoDB PF3D7_1118700; C-terminal 156 amino acids, residues 497-652 (3' 471 bp of mlc-b cDNA, primers 27 and 28); Cloned into BamHI/XhoI of pGEX6P1; a few vector residues may remain after PreScission cleavage; also called PfMLC-B CTD; calmodulin-like C-terminal domain; source: E. coli BL21 Gold, purified (glutathione-Sepharose, PreScission …)
T1 sequence: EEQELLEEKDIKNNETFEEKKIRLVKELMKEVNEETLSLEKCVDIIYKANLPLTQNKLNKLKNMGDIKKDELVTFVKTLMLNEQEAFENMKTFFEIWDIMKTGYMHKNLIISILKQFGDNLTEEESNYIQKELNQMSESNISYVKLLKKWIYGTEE
Assay: thermal unfolding monitored by CD at 222 nm; MLC-B CTD alone or with 1.5- or 3-fold molar excess of peptide; heating 1 °C/min, 20-90 °C
Settings: both partners purified

B1: Myosin B peptide Asn780 to His800 (peptide)
peptide: Ac-NIKNLQLAQAYFRKYKYIKEH-NH2
notes: Myosin B (MyoB), Plasmodium falciparum, residues 780-800; also called Asn780 to His800 peptide; peptide from the extreme C terminus of MyoB; source: synthetic peptide
Tm of MLC-B CTD with a 1.5-fold molar excess of the peptide (59 °C without peptide): 67 °C
Tm of MLC-B CTD with a 3-fold molar excess of the peptide (59 °C without peptide): 70 °C
